Experimental data reported in patent publication US8647863.

Tested on: ParA resolvase
Test: cell_activity
Conditions: complete recombination of pHCNparA and pSIPHCNparA into minicircle and miniplasmid 30 min after arabinose induction in E. coli; about 50% when resolvase was …

“ParA resolution sites res1/res2 (in plasmids pHCNparA, pSIPHCNparA, pSIPresHCN)” gave an activity of 100%.
